This passage reports AmyQ secretion efficiency results from the supplement of paper PMC9942255.

For this data set, the system named is Bacillus subtilis DB104 (SP-AmyQ fusion secretion). Nature of the data set: AmyQ secretion efficiency, weighted average sort bin (1 = best secretion, 10 = worst) (bin number (weighted average, 1-10)); higher = lower secretion efficiency. The gist of the method: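 B. subtilis DB104 library expressing mature AmyQ fused to designed signal peptides (amyE-integrated) was encapsulated at about 0.3 cells per ~65 nL alginate bead with fluorescein-starch, grown about 13 h at room temperature and nile red stained. Occupied beads were sorted by large-particle flow cytometry into 10 equally populated bins by green/red fluorescence ratio, and each bin's amplicons were Illumina-sequenced. Secretion score is the read-frequency-weighted average bin number, normalised to beads per bin, excluding low-abundance sequences.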

Where “and” joins values, the source holds several entries; their conditions need not be identical. Identical values can stand only once.

For MTMLRKIIGWILLLCIIPLFAFTVIASGATD, the AmyQ secretion efficiency turned out to be 6.31.
As for MRGKSAVLLSLIMLIAGFLISFYFQM, the figure is 7.22.
As for MKRRRSIFITCLLITLLTMGGMIASPASAAGT, the figure is 2.4.
As for MKSKWMSGLLLVAVGFSFTQVMLHAGET, the figure is 6.15; as for MKKIMSAFVGMVLLTIFCFSPQASAAYD, 4.89 and 4.8; as for MSFKRVITCVMAASLTLGSLLPAGYASAKED, 2.84.
MKKIMSAFVGMVLLTIFCFSPQASAADD came in with an AmyQ secretion efficiency of 3.32.
As for MKQGKFSVFLILLLMLTLVVAPKEKCEAASS, the figure is 1.62; as for MKKLSVAVAASFMSLSISLPGVQAAEG, 1.57; as for MKKLLALLAVVAFAFTDSSKAKAAEA, 2.03.
MTKTIFAFLTGLMMFGTITAASASPD came in with an AmyQ secretion efficiency of 3.99.
As for MKKTIMSFVAVAALSTTAFGAHISAKEI, the figure is 4.65; as for MKKWRKRLIIAVSLAIAIVLFMYTKGEAKAAGM, 3.1; as for MMKKLFHSTLIVLLFFSFFGVQPIHAKKR, 2.74.
As for MKKGIIRFLLVSFVLFFALFAFIAFGGGTTVQAAPA, the figure is 1.86; as for MKKVKKRRIICLSLILSVLAAPPSGAKAESV, 1.81; as for MNLRKILLSSALSLGMLVSAAPVLYTSS, 7.31.
As for MKQGKFSVFLILLLMLTLVVRRRKKRKAEAASS, the figure is 7.96.
For the sequence MTIIIAIIAAVIVIAALITFNVRNASPG, the AmyQ secretion efficiency is 7.45.
As for MKSKGSIMACLILFSFTITTFINTETISPFSN, the figure is 7.51; as for MHLIRAAGAVCLAVVLIAGCRKNSVQHQAEGENT, 5.67.
Regarding MKLWMRKTLVVLFTIVTFGLVSPPAAHMADKP, the AmyQ secretion efficiency is 2.08.
As for MKRMIVRMTLMMTLPLLIVCLAFSSFSASARAASE, the figure is 2.08; as for MLKRTSFVSSQGQGSRTLLSILLPSGQAHAQSA, 7.6.
The sequence MKSKWMSGLLLVAVGFSFTQVMVHSGET yielded an AmyQ secretion efficiency of 6.94.
As for MLCVMMLLFSAIASFPVSAQAKKK, the figure is 7.53; as for MKQGKFSVFLILLLMLTLVVAPKEKAEHASS, 4.93.
As for MGLGKKNLNTMFLSVAVAASFMSLSISLPGVQAAEG, the figure is 2.66; as for MAIIIAIIAAVIVIAALITFNVRNKSPG, 6.36.
MKVCQKSIVRSTTRQRIGTFVISVPFMANAQSD came in with an AmyQ secretion efficiency of 7.4.
As for MKNMSCKLVVSVTLFFSFLTIGPLAHAQNR, the figure is 1.47.
As for MKRKLLSSLAISALSLGSAPTASFAAES, the AmyQ secretion efficiency was 3.3.
As for MSTSTSSSLISSTVLSTVVISSLLFPGAAGASSK, the figure is 2.7.
As for MHLIRAAGAVCLAVVLIAGCRFNEDQHQAEGRRR, the figure is 5.26; as for MKRLFMKSSKRLFAVVFVFAVKGAPAKAETH, 7.81; as for MKKKQVMLALTAAAGLGLTALHSAPACKAAPL, 2.29.
As for MKKQIKKKRKKVVLGSTLFAGAASAQSI, the figure is 7.55.
Consider MRFTKVVGFLSVLGLAAVFPLTAQTEKA, for which the AmyQ secretion efficiency came to 5.69.
As for MKKWMITIAMLILAGIALFVFIRKLKSHKT, the figure is 7.72; as for MKRLRRKRKKGIMLLTFAPSAFAKQD, 7.07; as for MRKKRVITCVMAASLTLGSLLPAGYATAAPR, 1.69.
As for MKRIRILALGAALTIAPLSFASAEEN, the figure is 3.38; as for MKVLLSALLLLLFAFEPSASWKKL, 5.1; as for MKRFILVLSFLSIIVAYPIQINASPM, 2.47.
MRKYTVIASILLSFLSVLDEDDEDHHESKAFPV: the AmyQ secretion efficiency is 5.95.
As for MKKIMSARRRRVLLTIFCFSPQASAAYD, the figure is 7.27; as for MKLKSKLLLMCLALLIVFVGATTIANAPTH, 8.04; as for MKMKSGMEQAVSVLLLLSRLPVQASLTSR, 6.52.
In turn, MKKWLIIAVSLAIAIVLFMYTAGEAKAAGM had an AmyQ secretion efficiency of 2.74.
As for MKKRKRRNFKRQGTQYKGLALMISLVPADVLAKST, the figure is 7.46; as for MLKKKWMVGLLAGCLAAGGFSYNAFITEN, 6.43.
As for MTMLRKIRRKRKRLCIIPLFAFTVIASGKEV, the figure is 6.99.
Consider MKKRLIAPMLLSAASLAFFAMSGSHQAAAY, for which the AmyQ secretion efficiency stood at 5.04.
As for MGTFSTASILLLGILCSAAVFLIGAPSRALGAEV, the figure is 2.99.
As for MKLSVKIAGVLTVAAAAMTAKMYCTAKGN, the figure is 7.19.
As for MKKKQVMLALTAAAGLGLTALHSAPAAKIAPL, the figure is 6.05; as for MLCVMMLLFSAIAVSFPVSAQAKDQ, 5.09; as for MKLKKRVSMFLVALTMCGGLFVTPAKAVPR, 1.68.
MKKRKRRNFKRFIAAFLVLALMISLVPADVLAKRK gave an AmyQ secretion efficiency of 3.6.
Turning to MKRLLVSLRVWMVFLMNWVTPKRKTAAAAVY, the AmyQ secretion efficiency turned out to be 5.43.
Consider MRKKRVITCVMAASLTLGSLLPAGYATAKKR, for which the AmyQ secretion efficiency was found to be 2.88.
As for MKKRLIAPMLLSAASLAFFAMSGSSQAAAY, the figure is 4.08; as for MKKSQYFIVFICFFVLFSVHPIAFTPSAAAADS, 2.09.
With MKKTRQTLVILGALGTSYISADSS, the AmyQ secretion efficiency was determined as 5.19.
As for MKKVLMAFIICLSLILSGLAAPPSGAKAESV, the figure is 2.28; as for MKLSVKIAGVLTVAAAAMTAKMYATVKGN, 6.87.
As for MLKKIALTLCPAIVGSLLFFTAPASAHEE, the figure is 2.4.
Sequence MTMLRKIIGWILLLCIIPLFAFTVIASDKEV showed an AmyQ secretion efficiency of 7.16.
As for MKRTWNVCLTALLSVLLVAGSVPFHMEAKKP, the figure is 2.19; as for MAIIIAIIAAVIVIAALITFNVRNCSPG, 5.87.
As for MKNMSCKLVVSVTLFFSFLTIGPLVFPFAHAQNS, the figure is 4.97; as for MPYLKRVLLLLVTGLFMSLFAVTATRSAQTG, 3.54.
Sequence MKKSQYFIVFICFFVLFSRHKKAAAAADS came in with an AmyQ secretion efficiency of 6.2.
As for MKKELRRKKKRCLSLSPLVSTNEVFAATT, the figure is 6.21; as for MKKKQVMLALTAAAGLGLTALGSAPAAKAAPL, 2.2.
As for MRMLWRSLALCGLALTLAPCMQAAEP, the figure is 1.94; as for MKKQIITATTAVVLGSTLFAGAASSQSI, 1.97; as for MKLSVKIAGVLTVAAAAMTAKMYATRKGN, 7.91.
As for MPIKKKVMMCLAVTLVFGSMSFPTLTNSGGFPE, the figure is 5.65.
For the sequence MMKKGLLAGALTATVLFIGTCAVDVPGIISPKTAEAASQ, the AmyQ secretion efficiency is 1.04.
As for MMSLLAAGIIGLLTVSIASPSFAAEK, the figure is 5.23; as for MKKRFFGPIILAFILFTASTAFTAIAGAIAIPS, 4.73.
As for MKKLVLCVSILAVILSGVLLTQLS, the figure is 5.53; as for MRKKHQTISLLIIFLLASAVLAKPIEAHTV, 2.69.
As for MRKKRVITCVMAASLTLGPAGYATAKED, the figure is 2.6.
The sequence MNLRKIKKSSALSLGMLVSAAPVLATSS displayed an AmyQ secretion efficiency of 5.42.
As for MKKVLMAFIICLSLILVVLAAGPSTAKAESV, the figure is 1.98.
As for MFGWMAGLFLAAAVLLCLMVPQQIQGASS, the figure is 4.3; as for MKSKGSIMACLILFSFTTFINTETISAFSN, 4.68.
MKKAFLVFLSVVLVTTVFLVKQQESVPQAKQL had an AmyQ secretion efficiency of 7.73.
As for MLCVMMLLFSAIASFPVSPQAKDQ, the figure is 6.39; as for MKSKWMSGLLLVAVGFSFTQVMVHEGET, 5.54; as for MKWMCSICCAAVLLAGGASQAEAV, 3.1.
MKSKWMSGLLLVAVGFSFTQVMVHLGET: the AmyQ secretion efficiency was determined as 7.17.
MRPVFPLILSAVLFLSCFFIAGATEASASKR had an AmyQ secretion efficiency of 3.68.
As for MGLGKKLSVAVAASFMSLSISLPGVQNAEG, the figure is 2.95; as for MKKQIITATTAVVLGSTLFAGACSAQSI, 2.49; as for MKKAAAVLLSLGLVFFLLTSGFSYGAGHVAEAKTK, 3.03.
As for MTKKTSIILITSAWFLPLVCVLLISGWLAPAASASAQTT, the figure is 2.35; as for MRKTIFAFLTGLMMFGTITAASKSPD, 6; as for MTKKAWFLPLVCVLLISGWLAPAASASLQTT, 3.41.
As for MLKKIALTLCPAIVGSLLFFTRKKASAHVS, the figure is 7.46.
Consider MKNMSCKLVVSVTLFFSFLFTIGPLAHAQNS, for which the AmyQ secretion efficiency came to 1.19.
As for MKKRFFGPIILAFILFAGAIKIPS, the figure is 5.25; as for MRKLWISLLFALTLIFTMAFSNMSAQAAGK, 2.67.
As for MFKKHTISLLIIFLLASAVLAKPLEAHTV, the figure is 2.46; as for MPGKSAVLLSLIMLIAGFLISFSFQM, 7.65.
Sequence MKKVKRAFIICLSLILSVLAAPPSGAKAESV registered an AmyQ secretion efficiency of 1.67.
